We go through two molecules from patent US20190256864A1 (INDIANA UNIVERSITY RESEARCH AND TECHNOLOGY, published 2019).

For data set [1], the system named is T1, Soybean mosaic virus (SMV) PBS1 decoy protein.
T1 sequence: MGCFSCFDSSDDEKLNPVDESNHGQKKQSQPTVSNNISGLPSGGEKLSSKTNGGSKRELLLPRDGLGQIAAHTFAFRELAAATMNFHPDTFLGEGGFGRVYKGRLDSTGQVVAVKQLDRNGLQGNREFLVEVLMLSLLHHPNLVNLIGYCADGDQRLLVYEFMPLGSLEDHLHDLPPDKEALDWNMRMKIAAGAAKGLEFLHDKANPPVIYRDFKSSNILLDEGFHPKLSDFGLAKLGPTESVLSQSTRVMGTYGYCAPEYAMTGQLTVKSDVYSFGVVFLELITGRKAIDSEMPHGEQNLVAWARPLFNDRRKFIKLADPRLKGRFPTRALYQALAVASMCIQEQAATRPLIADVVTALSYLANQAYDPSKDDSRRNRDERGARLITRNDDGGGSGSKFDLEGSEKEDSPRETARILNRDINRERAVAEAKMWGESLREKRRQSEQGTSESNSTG

Data set [2] has as its system T2, GmPBS1SCS derivative of GmPBS1b.
T2 sequence: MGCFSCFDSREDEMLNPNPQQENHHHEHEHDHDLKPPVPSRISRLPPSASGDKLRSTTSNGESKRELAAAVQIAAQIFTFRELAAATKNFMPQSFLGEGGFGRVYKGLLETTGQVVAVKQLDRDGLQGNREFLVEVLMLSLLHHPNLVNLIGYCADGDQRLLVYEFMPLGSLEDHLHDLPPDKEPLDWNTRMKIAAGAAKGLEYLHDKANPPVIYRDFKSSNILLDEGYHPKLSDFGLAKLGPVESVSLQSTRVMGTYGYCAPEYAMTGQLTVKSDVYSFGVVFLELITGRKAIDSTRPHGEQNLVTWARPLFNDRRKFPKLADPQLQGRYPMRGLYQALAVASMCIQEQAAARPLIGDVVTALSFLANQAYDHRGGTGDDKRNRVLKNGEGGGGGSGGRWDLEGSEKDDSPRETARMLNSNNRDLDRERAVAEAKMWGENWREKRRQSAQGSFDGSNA

For data set [3], the system named is T3, Wheat streak mosaic virus (WSMV) PBS1 decoy protein.
T3 sequence: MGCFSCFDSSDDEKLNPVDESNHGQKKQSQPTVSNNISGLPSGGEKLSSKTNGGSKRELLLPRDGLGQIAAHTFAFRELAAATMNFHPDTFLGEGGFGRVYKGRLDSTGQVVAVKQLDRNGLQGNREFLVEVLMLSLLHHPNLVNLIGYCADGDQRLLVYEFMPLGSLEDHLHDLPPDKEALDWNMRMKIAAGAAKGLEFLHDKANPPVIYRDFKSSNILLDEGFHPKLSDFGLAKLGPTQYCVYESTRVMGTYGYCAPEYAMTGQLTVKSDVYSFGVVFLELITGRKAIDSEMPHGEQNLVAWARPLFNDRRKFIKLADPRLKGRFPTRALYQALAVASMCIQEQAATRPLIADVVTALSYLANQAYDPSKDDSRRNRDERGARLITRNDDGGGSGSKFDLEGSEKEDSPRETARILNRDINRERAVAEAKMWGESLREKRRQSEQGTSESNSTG

For data set [4], the system named is T4, GmPBS1SCS derivative of GmPBS1a.
T4 sequence: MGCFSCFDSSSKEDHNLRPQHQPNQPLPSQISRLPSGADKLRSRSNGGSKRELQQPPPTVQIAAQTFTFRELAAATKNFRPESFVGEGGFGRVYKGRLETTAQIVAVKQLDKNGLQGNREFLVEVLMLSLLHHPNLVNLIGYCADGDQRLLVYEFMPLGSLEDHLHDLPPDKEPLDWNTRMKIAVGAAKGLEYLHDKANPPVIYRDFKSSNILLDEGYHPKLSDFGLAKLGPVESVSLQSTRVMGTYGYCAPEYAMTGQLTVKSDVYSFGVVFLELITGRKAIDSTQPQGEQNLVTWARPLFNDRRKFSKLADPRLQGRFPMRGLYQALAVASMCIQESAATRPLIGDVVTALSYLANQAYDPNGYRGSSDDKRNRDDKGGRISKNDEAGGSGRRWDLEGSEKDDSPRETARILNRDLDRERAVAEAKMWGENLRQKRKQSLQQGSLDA

Data set [5] has as its system T5, GmPBS1SCS derivative of GmPBS1c.
T5 sequence: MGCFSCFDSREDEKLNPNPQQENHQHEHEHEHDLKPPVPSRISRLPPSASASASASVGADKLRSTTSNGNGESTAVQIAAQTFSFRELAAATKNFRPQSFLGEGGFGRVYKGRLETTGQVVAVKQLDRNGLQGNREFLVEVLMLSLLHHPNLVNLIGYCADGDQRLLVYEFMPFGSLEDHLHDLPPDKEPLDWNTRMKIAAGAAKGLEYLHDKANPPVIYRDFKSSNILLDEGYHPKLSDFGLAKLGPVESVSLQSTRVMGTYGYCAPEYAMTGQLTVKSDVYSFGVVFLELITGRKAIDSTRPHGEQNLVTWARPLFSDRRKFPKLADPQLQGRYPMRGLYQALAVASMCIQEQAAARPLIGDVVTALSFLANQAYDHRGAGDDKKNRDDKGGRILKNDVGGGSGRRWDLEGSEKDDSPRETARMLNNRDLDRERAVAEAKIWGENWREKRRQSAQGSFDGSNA

The target in data set [6] is T6, HvPBS1-2:HA.
T6 chain: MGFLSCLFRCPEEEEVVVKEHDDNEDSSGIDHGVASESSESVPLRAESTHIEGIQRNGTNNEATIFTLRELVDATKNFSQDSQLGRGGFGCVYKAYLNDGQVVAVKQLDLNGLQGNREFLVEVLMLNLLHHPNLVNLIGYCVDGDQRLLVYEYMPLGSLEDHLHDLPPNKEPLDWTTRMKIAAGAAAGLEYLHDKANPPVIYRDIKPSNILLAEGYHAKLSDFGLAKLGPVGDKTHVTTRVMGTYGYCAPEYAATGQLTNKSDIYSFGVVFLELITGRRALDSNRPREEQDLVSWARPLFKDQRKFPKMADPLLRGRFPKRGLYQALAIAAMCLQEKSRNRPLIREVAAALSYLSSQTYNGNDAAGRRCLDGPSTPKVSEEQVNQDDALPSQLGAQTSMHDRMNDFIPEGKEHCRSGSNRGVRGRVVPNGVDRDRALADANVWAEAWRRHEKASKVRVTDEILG

Data set [7] addresses T7, AtPBS1:HA.
T7 chain: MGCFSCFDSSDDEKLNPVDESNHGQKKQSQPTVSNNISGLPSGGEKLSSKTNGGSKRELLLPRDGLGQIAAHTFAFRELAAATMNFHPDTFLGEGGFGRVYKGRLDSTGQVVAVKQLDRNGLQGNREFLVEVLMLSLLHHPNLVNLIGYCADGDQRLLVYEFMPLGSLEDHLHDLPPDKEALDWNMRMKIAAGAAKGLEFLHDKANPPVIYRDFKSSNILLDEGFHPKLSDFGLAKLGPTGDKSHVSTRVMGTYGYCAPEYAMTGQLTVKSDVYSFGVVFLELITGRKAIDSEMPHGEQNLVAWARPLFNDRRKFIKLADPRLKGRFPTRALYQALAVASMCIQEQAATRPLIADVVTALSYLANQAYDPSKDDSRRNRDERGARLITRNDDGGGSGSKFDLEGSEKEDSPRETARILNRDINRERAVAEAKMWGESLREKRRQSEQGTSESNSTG

Data set [8] deals with T8, HvPBS1-1:HA.
T8 chain: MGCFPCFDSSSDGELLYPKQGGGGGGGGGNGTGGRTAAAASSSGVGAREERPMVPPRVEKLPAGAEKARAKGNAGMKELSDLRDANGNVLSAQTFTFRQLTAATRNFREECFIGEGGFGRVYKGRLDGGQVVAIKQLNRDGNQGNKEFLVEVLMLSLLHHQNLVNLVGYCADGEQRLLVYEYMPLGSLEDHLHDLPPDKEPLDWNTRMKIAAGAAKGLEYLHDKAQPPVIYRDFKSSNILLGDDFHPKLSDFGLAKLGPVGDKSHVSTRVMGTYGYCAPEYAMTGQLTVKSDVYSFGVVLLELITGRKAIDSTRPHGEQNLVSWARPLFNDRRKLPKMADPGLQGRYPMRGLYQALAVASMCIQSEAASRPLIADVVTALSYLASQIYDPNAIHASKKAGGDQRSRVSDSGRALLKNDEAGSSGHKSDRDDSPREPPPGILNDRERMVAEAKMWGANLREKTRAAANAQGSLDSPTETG

In data set [9] the target is T9, GmPBS1a.
T9 chain: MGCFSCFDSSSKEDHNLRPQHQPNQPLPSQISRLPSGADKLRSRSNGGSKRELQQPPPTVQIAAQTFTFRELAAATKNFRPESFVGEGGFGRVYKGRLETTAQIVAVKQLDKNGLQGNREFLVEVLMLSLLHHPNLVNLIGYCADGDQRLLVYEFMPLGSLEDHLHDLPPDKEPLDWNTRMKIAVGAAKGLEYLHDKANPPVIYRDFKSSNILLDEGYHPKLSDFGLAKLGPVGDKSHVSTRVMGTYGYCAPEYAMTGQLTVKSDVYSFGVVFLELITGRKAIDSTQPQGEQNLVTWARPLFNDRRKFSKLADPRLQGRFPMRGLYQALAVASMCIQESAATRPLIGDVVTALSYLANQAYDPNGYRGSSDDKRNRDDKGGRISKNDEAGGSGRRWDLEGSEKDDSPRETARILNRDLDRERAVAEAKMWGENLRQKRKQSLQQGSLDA

For data set [10], the target named is T10, GmPBS1b.
T10 chain: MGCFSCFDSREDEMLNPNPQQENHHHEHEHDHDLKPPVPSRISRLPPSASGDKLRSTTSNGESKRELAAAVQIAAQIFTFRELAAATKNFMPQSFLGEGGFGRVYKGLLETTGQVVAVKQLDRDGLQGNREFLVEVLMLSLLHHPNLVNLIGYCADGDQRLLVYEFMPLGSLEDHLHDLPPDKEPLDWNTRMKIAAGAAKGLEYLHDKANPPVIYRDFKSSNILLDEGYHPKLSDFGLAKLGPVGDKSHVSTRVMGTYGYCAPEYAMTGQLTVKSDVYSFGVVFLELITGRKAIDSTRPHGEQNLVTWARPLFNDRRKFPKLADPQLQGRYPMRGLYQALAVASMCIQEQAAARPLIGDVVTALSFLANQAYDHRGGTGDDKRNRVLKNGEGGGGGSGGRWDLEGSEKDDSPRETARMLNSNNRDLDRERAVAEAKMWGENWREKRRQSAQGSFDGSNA

In data set [11] the target is NbPBS1:HA.
The target of data set [12] is T11, GmPBS1c.
T11 chain: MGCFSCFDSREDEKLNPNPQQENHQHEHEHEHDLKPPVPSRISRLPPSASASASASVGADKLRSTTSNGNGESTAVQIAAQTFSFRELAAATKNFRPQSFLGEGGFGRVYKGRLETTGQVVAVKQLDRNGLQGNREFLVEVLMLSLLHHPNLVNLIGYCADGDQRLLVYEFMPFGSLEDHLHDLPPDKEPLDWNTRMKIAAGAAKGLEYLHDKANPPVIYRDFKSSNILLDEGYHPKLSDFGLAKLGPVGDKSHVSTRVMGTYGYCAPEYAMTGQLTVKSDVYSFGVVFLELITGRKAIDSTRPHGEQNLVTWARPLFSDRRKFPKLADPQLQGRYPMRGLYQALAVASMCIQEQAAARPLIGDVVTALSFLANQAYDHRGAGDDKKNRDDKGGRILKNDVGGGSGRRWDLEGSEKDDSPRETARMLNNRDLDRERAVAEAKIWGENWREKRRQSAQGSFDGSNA

Consider Soybean mosaic virus (SMV) NIa protease, for which the “cleavage of the substrate (immunoblot after transient co-expression in N. benthamiana)” value in data set [1] is “demonstrating cleavage of the decoy PBS1 proteins only by the matching proteases”. Besides, the “cleavage of the substrate (transient coexpression in N. benthamiana)” value in data set [2], in data set [4] and in data set [5] was “Transient coexpression of the modified GmPBS1 constructs along with the SMV NIa protease in N. benthamiana resulted in NIa-mediated cleavage of GmPBS1SCS” each time. Further, the “cleavage of the substrate (immunoblot after transient co-expression in N. benthamiana); not cleaved by the non-matching protease” value in data set [3] was “demonstrating cleavage of the decoy PBS1 proteins only by the matching proteases”.

B1: AvrPphB:myc (protein)
chain: MKIGTQATSLAVLHNQESHAPQAPIAVRPEPAHAIPEIPLDLAIRPRTRGIHPFLAMTLGDKGCASSSGVSLEDDSHTQVSLSDFSVASRDVNHNNICAGLSTEWLVMSSDGDAESRMDHLDYNGEGQSRGSERHQVYNDALRAALSNDDEAPFFTASTAVIEDAGFSLRREPKTVHASGGSAQLGQTVAHDVAQSGRKHLLSLRFANVQGHAIACSCEGSQFKLFDPNLGEFQSSRSAAPQLIKGLIDHYNSLNYDVACVNEFRVS
With B1, the “cleavage of the substrate (Western blot after transient co-expression in N. benthamiana)” value is “HvPBS1-1:HA and HvPBS1-2:HA are each cleaved by AvrPphB:myc” in data set [6]; “HvPBS1-1:HA and HvPBS1-2:HA are each cleaved by AvrPphB:myc” in data set [8]. For the same molecule, in data set [7], the “cleavage of the substrate (immunoblot after co-expression in N. benthamiana)” value was “immunoblots showing cleavage of PBS1 proteins from Arabidopsis (At), soybean (Gm) and barley (Hv) by AvrPphB”. For the same molecule, the “cleavage of the substrate” value in data set [9], in data set [10] and in data set [12] was “AvrPphB induces cleavage of all three soybean PBS1 proteins” in each case. Further, the “cleavage of the substrate (immunoblot after transient co-expression in N. benthamiana)” value in [11] is “Co-expression with AvrPphB:myc, but not the protease inactive mutant, resulted in cleavage of NbPBS1:HA within 6 hours post-transgene expression”.
